Laboratory results: article PMC6039492

Columns and labels:
[1] = molecular target: mGlu2 mutated to be locked in the inactive conformation (HA-ST-mGlu2-515NGlyc-L698C-L729C-F756D), cross-linked with CuP (rat) (UniProt P31421); assay: two-photon scanning number and brightness (sN&B) fluctuation microscopy; live cultured rat hippocampal neurons, SNAP-tag labelled with Alexa488, incubated with 150 μM CuP for the last 10 min of labelling, imaged in the absence of ligand; 90-600 subunits/Veff; apparent stoichiometry (lower with CuP)
[2] = molecular target: GABAB receptor (heterodimer of GABAB1 and GABAB2), untagged and SNAP-tagged subunits in three combinations (rat) (UniProt Q9Z0U4); assay: two-photon scanning number and brightness (sN&B) fluctuation microscopy; live cultured rat hippocampal neurons, GABAB1 and/or GABAB2 SNAP-tagged and labelled with Alexa488, corrected for the theoretical number of fluorophores per heterodimer; across expression levels

Chain of GABAB receptor (heterodimer of GABAB1 and GABAB2), untagged and SNAP-tagged subunits in three combinations (Q9Z0U4 20-960): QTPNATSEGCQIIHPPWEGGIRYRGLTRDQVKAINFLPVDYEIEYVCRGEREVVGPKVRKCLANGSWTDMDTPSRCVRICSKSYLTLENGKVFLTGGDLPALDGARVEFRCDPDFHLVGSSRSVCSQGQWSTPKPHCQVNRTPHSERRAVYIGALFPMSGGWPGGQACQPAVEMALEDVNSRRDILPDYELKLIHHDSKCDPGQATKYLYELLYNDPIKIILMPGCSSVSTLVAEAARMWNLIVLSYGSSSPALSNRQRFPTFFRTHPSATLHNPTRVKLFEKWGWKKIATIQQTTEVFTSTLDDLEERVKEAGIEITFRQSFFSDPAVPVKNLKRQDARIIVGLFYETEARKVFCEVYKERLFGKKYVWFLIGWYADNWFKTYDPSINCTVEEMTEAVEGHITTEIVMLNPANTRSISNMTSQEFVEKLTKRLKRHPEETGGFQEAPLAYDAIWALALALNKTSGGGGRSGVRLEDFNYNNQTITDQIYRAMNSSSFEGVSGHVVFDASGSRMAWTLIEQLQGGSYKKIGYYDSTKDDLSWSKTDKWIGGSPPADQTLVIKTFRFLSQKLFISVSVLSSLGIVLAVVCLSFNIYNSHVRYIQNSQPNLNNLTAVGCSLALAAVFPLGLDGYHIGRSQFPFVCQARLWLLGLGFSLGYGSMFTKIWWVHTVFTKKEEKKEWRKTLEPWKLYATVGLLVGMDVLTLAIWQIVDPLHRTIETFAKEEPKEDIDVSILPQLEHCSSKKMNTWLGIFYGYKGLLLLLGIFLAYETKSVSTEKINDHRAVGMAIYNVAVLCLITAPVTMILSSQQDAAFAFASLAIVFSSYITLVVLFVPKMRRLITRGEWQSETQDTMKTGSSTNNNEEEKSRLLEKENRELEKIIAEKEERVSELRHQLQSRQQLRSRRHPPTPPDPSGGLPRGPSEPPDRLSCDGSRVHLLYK
Chain of GABAB receptor (heterodimer of GABAB1 and GABAB2), untagged and SNAP-tagged subunits in three combinations (O88871 41-940): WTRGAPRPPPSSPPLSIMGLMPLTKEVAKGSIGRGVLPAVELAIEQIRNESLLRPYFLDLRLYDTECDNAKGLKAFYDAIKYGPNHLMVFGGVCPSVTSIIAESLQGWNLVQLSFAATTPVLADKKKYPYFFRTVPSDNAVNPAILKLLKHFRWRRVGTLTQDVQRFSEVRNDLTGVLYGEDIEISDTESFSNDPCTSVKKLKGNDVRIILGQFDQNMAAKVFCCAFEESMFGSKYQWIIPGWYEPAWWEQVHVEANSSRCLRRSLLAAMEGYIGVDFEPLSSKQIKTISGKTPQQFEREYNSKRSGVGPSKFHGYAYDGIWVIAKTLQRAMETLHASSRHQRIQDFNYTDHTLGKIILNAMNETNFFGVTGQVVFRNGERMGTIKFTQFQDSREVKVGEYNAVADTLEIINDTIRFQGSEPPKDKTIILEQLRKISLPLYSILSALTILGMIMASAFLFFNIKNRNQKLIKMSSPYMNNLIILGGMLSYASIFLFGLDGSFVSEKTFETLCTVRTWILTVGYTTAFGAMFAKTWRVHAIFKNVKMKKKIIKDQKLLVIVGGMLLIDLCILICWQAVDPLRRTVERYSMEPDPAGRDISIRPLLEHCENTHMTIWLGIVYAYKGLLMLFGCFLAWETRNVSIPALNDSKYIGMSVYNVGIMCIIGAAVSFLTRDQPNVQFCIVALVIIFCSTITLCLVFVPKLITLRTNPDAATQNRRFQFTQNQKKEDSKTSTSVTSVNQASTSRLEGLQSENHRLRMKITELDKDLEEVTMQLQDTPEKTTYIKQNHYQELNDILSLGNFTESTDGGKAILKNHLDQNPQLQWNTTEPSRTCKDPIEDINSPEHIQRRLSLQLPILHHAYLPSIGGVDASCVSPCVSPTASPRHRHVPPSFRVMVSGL

stoichiometry N (subunits/complex) [1]	stoichiometry N (per diffusing complex) [2]	Substance
2.3	–	mGlu2 mutated to be locked in the inactive conformation (HA-ST-mGlu2-515NGlyc-L698C-L729C-F756D), cross-linked with CuP (from UniProt P31421 19-872) (receptor)
–	2 to 8	GABAB receptor (heterodimer of GABAB1 and GABAB2), untagged and SNAP-tagged subunits in three combinations (from UniProt Q9Z0U4 20-960; O88871 41-940) (complex)
